{"source": "paper PMC6964287", "origin": "cited, not measured here", "key": {"Asp85": {"target": "Asp85 (UniProt position 98, WARYADWLFTT)", "experiment": "NMR", "conditions": "membrane-associated pHLIP; protonation linked to bilayer insertion"}, "Asp96": {"target": "Asp96 (UniProt position 109, PLLLLDLALLV)", "experiment": "NMR", "conditions": "membrane-associated pHLIP; protonation linked to bilayer insertion"}}}
{"substance": "pHLIP (pH-Low Insertion Peptide), peptide derived from bacteriorhodopsin helix C (Halobacterium salinarum)", "values": [{"measurement": "pKa", "setting": "Asp85", "result": "5.82 ± 0.08"}, {"measurement": "pKa", "setting": "Asp96", "result": "6.08 ± 0.08"}]}
